Reference: the RNAGym collection of RNA variant scans (doi:10.7554/elife.80360)

B1: Hairpin Ribozyme (parent)
chain: GUCCUCUUUCACGUGCGCGUGAAAGAGAGAAGUGAACCAGAGAAACACACGUUGUGGUAUAUUACCUGGUA

Variants of: B1
Experiment: self-cleavage, relative activity (ratio to wild type); higher = more cleavage; co-transcriptional

Compared with GUCCUCUUUCACGUGCGCGUGAAAGAGAGAAGUGAAGCAGAGAAACACACGUUGUGGUAUAUUACCUCGUA [C37G G68C], GUCCUCUUUCACGUGCGCGUGAAAGAGAGAAGUGAAGCAGAGAAACACACGAUGUGGUAUAUUACCUGGUA [C37G U52A] is higher in self-cleavage: 0.131 for the first, 0.358 for the second.

Compared with GUCCUCUUUCACGUGCGCGUGAAAGAGAGAAGUGAAGCAGAGAAACACACGCUGUGGUAUAUUACCUGGUA [C37G U52C], GUCCUCUUUCACGUGCGCGUGAAAGAGAGAAGUGAAACAGAGAAACACACGUUGUGGUAUAUUACCGGGUA [C37A U67G] is lower in self-cleavage: 0.242 for the first, 0.202 for the second.

Going from GUCCUCUUUCACGUGCGCGUGAAAGAGAGAAGUGAAACAGAGAAACACACGUUGUGGUAUAUUACCAGGUA [C37A U67A] to GUCCUCUUUCACGUGCGCGUGAAAGAGAGAAGUGAAACAGAGAAACACACGCUGUGGUAUAUUACCUGGUA [C37A U52C], the self-cleavage rises from 0.197 to 0.266.

Going from GUCCUCUUUCACGUGCGCGUGAAAGAGAGAAGUGAAACAGGGAAACACACGUUGUGGUAUAUUACCUGGUA [C37A A41G] to GUCCUCUUUCACGUGCGCGUGAAAGAGAGAAGUGAAGCAGAGUAACACACGUUGUGGUAUAUUACCUGGUA [C37G A43U], the self-cleavage falls from 0.339 to 0.177.

First: GUCCUCUUUCACGUGCGCGUGAAAGAGAGAAGUGAAGCAGAGCAACACACGUUGUGGUAUAUUACCUGGUA [C37G A43C]
Second: GUCCUCUUUCACGUGCGCGUGAAAGAGAGAAGUGAAGCAGAGGAACACACGUUGUGGUAUAUUACCUGGUA [C37G A43G]
The self-cleavage of the first is lower: 0.108 for the first, 0.261 for the second.

Going from GUCCUCUUUCACGUGCGCGUGAAAGAGAGAAGUGAAUCAGAGAACCACACGUUGUGGUAUAUUACCUGGUA [C37U A45C] to GUCCUCUUUCACGUGCGCGUGAAAGAGAGAAGUGAAUCAGAGAAUCACACGUUGUGGUAUAUUACCUGGUA [C37U A45U], the self-cleavage rises from 0.109 to 0.11.

Going from GUCCUCUUUCACGUGCGCGUGAAAGAGAGAAGUGAAACAGAGAAACACACGUUGAGGUAUAUUACCUGGUA [C37A U55A] to GUCCUCUUUCACGUGCGCGUGAAAGAGAGAAGUGAAACAGAGAAACACACGUUGGGGUAUAUUACCUGGUA [C37A U55G], the self-cleavage falls from 0.121 to 0.0701.

First: GUCCUCUUUCACGUGCGCGUGAAAGAGAGAAGUGAAACAGAGAAACGCACGUUGUGGUAUAUUACCUGGUA [C37A A47G]
Second: GUCCUCUUUCACGUGCGCGUGAAAGAGAGAAGUGAAUCAGAGUAACACACGUUGUGGUAUAUUACCUGGUA [C37U A43U]
The self-cleavage of the first is higher: 0.0917 for the first, 0.0491 for the second.

Going from GUCCUCUUUCACGUGCGCGUGAAAGAGAGAAGUGAAUCAGAGCAACACACGUUGUGGUAUAUUACCUGGUA [C37U A43C] to GUCCUCUUUCACGUGCGCGUGAAAGAGAGAAGUGAAACAGAGAAACACACGUUGUGGUAUAUUCCCUGGUA [C37A A64C], the self-cleavage rises from 0.126 to 0.144.

First: GUCCUCUUUCACGUGCGCGUGAAAGAGAGAAGUGAAACAGAGAAACACACGUUGUGGUAAAUUACCUGGUA [C37A U60A]
Second: GUCCUCUUUCACGUGCGCGUGAAAGAGAGAAGUGAAUCGGAGAAACACACGUUGUGGUAUAUUACCUGGUA [C37U A39G]
The self-cleavage of the first is higher: 0.303 for the first, 0.269 for the second.

Compared with GUCCUCUUUCACGUGCGCGUGAAAGAGAGAAGUGAAGCAGAGAAACACACGUUUUGGUAUAUUACCUGGUA [C37G G54U], GUCCUCUUUCACGUGCGCGUGAAAGAGAGAAGUGAAACAGAGAAACACCCGUUGUGGUAUAUUACCUGGUA [C37A A49C] is lower in self-cleavage: 0.255 for the first, 0.0162 for the second.

First: GUCCUCUUUCACGUGCGCGUGAAAGAGAGAAGUGAAACAGAGAAACACGCGUUGUGGUAUAUUACCUGGUA [C37A A49G]
Second: GUCCUCUUUCACGUGCGCGUGAAAGAGAGAAGUGAAGCGGAGAAACACACGUUGUGGUAUAUUACCUGGUA [C37G A39G]
The self-cleavage of the first is lower: 0.325 for the first, 0.328 for the second.

Compared with GUCCUCUUUCACGUGCGCGUGAAAGAGAGAAGUGAAGCUGAGAAACACACGUUGUGGUAUAUUACCUGGUA [C37G A39U], GUCCUCUUUCACGUGCGCGUGAAAGAGAGAAGUGAAGCAGAGAAACACACGUUGUGGUAUAUUACCUGGAA [C37G U70A] is higher in self-cleavage: 0.0635 for the first, 0.488 for the second.

Compared with GUCCUCUUUCACGUGCGCGUGAAAGAGAGAAGUGAAACAGAGAAACACACGUUGUGGUAUGUUACCUGGUA [C37A A61G], GUCCUCUUUCACGUGCGCGUGAAAGAGAGAAGUGAAACAGAGAAACACACGUUGUGGUAUAAUACCUGGUA [C37A U62A] is lower in self-cleavage: 0.207 for the first, 0.133 for the second.

First: GUCCUCUUUCACGUGCGCGUGAAAGAGAGAAGUGAAGCAGAGAAACCCACGUUGUGGUAUAUUACCUGGUA [C37G A47C]
Second: GUCCUCUUUCACGUGCGCGUGAAAGAGAGAAGUGAAACAGAGAAACACACGUUGUGGUAUAUUACCUGGUC [C37A A71C]
The self-cleavage of the first is lower: 0.14 for the first, 0.526 for the second.

Compared with GUCCUCUUUCACGUGCGCGUGAAAGAGAGAAGUGAAACAGAGAAACACACGUUGUGGUAUAUUACCUGGUU [C37A A71U], GUCCUCUUUCACGUGCGCGUGAAAGAGAGAAGUGAAGCAGAGAAACACACGUUGUGAUAUAUUACCUGGUA [C37G G57A] is lower in self-cleavage: 0.284 for the first, 0.13 for the second.

Compared with GUCCUCUUUCACGUGCGCGUGAAAGAGAGAAGUGAAGCAGAGAAACACACGUUGUGUUAUAUUACCUGGUA [C37G G57U], GUCCUCUUUCACGUGCGCGUGAAAGAGAGAAGUGAAACAGAGAAACACACGUUGUGGAAUAUUACCUGGUA [C37A U58A] is higher in self-cleavage: 0.141 for the first, 0.235 for the second.

Compared with GUCCUCUUUCACGUGCGCGUGAAAGAGAGAAGUGAAACAGAGAAACACACCUUGUGGUAUAUUACCUGGUA [C37A G51C], GUCCUCUUUCACGUGCGCGUGAAAGAGAGAAGUGAAACAGAGAAGCACACGUUGUGGUAUAUUACCUGGUA [C37A A45G] is lower in self-cleavage: 0.239 for the first, 0.0956 for the second.

Compared with GUCCUCUUUCACGUGCGCGUGAAAGAGAGAAGUGAAGCAGUGAAACACACGUUGUGGUAUAUUACCUGGUA [C37G A41U], GUCCUCUUUCACGUGCGCGUGAAAGAGAGAAGUGAAACAGACAAACACACGUUGUGGUAUAUUACCUGGUA [C37A G42C] is lower in self-cleavage: 0.541 for the first, 0.16 for the second.
